Consider one molecule from patent US20010052137A1, “Axin domain-like polypeptide inhibitors of glycogen synthase kinase 3 beta activity and activators of wnt signaling” (Trustees of the University of Pennsylvania, priority 2000, published 2001).

The assay has as its system GSK-3 beta. The experiment in a line: In ovo tau phosphorylation assay: GSK-3 beta and Xaxin constructs co-expressed in Xenopus oocytes. The assay is classed as cell-based. The note with it: construct co-expressed with GSK-3 beta in Xenopus oocytes; tau microinjected; PHF-1 immunoblot. The procedure: Stage VI Xenopus oocytes were isolated by collagenase treatment (Smith et al., 1994, Meth. Cell Biol. 36:45-58) and were injected with mRNA prepared by in vitro transcription (mMessage Machine™; Ambion, Austin, Tex.). 10 nanoliters of mRNA (containing 1-2 nanograms per nanoliter) was injected for each construct (unless otherwise specified), and the injected oocytes were incubated for 16 hours at 18° C. To analyze the effects of Xaxin constructs on dorsal-ventral pattern formation, Xenopus embryos were injected with 10 nanoliters of mRNA (0.1-0.2 nanogram per nanoliter) into one dorsal or ventral cell of a 4 cell embryo and dorsal axes were assessed at the tadpole stage. For Xaxin co-immunoprecipitation, fertilized eggs were injected with 10 nanoliters of Xaxin tagged with Myc, with hemagglutinin, or with both Myc and hemagglutinin (1 nanogram per nanoliter) and harvested at the blastula stage (stage 8).
In ovo phosphorylation of tau by GSK-3 beta was performed by microinjection of tau protein into oocytes expressing GSK-3 beta and Xaxin constructs. After 90 minutes, oocytes were homogenized and tau phosphorylation was analyzed in western blots using phospho-specific antibodies as described (Hedgepeth et al., 1997, Develop. Biol. 185:82-91). In vitro assays for GSK-3 beta activity were performed as described (Klein et al., 1996, Proc. Natl. Acad. Sci. USA 93:8455-8459). Recombinant GID-2/his protein (described below) was purified by affinity chromatography and added to in vitro assays at selected concentrations.
In the experiments presented in this example, a tau phosphorylation assay (described in Hedgepeth et al., 1997, Develop. Biol. 185:82-91) was used to examine the activity of GSK-3 beta in Xenopus oocytes in the presence of full length axin and axin deletion mutants. […] Furthermore, GSK-3 beta-dependent tau phosphorylation occurs in oocytes at the same sites (tau serine residues 396 and 404) that are phosphorylated by GSK-3 beta in vitro and occurs with similarly rapid kinetics.
GSK-3 beta was expressed in oocytes together with Myc-tagged full length Xaxin or with the amino-terminal (amino acid residues 63-288), GID-1 (amino acid residues 277-545), or carboxyl-terminal (amino acid residues 429-713) fragments of Xaxin, as depicted in FIG. 1A. Purified tau protein was then microinjected into the oocytes, and phosphorylation of tau was measured by immunoblotting using antibody PHF-1 or with antibodies that detect all (i.e. phosphorylated and non-phosphorylated) forms of tau.
In order to identify the domain of axin necessary for GSK-3 beta binding, multiple Myc-tagged GID deletion constructs (shown diagrammatically in FIG. 3A) were individually expressed in Xenopus oocytes in which GSK-3 beta was also expressed. Tau protein was microinjected into the oocytes, and immunoblotting was performed using phosphorylation-state-specific tau antibodies. A parallel group of oocytes expressing GSK-3 beta and the Myc-tagged GID deletion constructs were lysed, and GID proteins were immunoprecipitated using a Myc-specific antibody. The presence or absence of GSK-3 beta in GID immunoprecipitates was detected using GSK-3 beta-specific antibodies. GID deletion constructs which included amino acid residues 380-404 of Xaxin (i.e. constructs GID-1, GID-2, GID-4, GID-5, and GID-6) bound GSK-3 beta and inhibited GSK-3 beta mediated tau phosphorylation, as indicated in FIG. 3A. […] However, changing leucine residue 392 in FIG. 3B to proline abolishes its activity.
(Immunoblotting shows a protein as a band on a membrane.)

B1: full length Xaxin: full length Xenopus axin, amino acid residues 1-842 (SEQ ID NO: 8) (protein, listed as Xenopus laevis)
chain: MSVKGKGFPLDLGGSFTEDAPRPPVPGEEGELITTDQRPFSHTYYSLKNDGIKNETSTATPRRPDLDLGYEPEGSASPTPPYLKWAESLHSLLDDQDGIHLFRTFLQQENCADLLDFWFACSGFRKLEPNDSKVEKRLKLAKAIYKKYVLDSNGIVSRQIKPATKSFIKDCVLRQQIDPAMFDQAQMEIQSMMEDNTYPVFLKSDIYLEYTTIGGESPKNYSDQSSGSGTGKGPSGYLPTLNEDEEWRCDQGGEHERERECIPSSLFSQKLALDSSSHCAGSNRRLSDGREFRPGTWREPVNPYYVNTGYAGAPVTSANDSEQQSMSSDADTMSLTDSSVDGIPPYRLRKHYRREMQESANANGRGPLPHIPRTYHMPKDIHVDPEKFAAELISRLEGVLRDREAEQKLEERLKRVRAEEEGDDGDVSSGPSVISHKLPSGPPMHHFNSRYSETGCVGMQIRDAHEENPESILDEHVQRVMKTPGCQSPGTGRHSPKSRSPDGHLSKTLPGSLGTMQTGHGKHSSKSTAKVDSGNLHHHKHVYHHVHHHGGVKPKEQIDGESTQRVQTNFPWNVESHNYATKSRNYAESMGMAPNPMDSLAYSGKVSMLSKRNAKKADLGKSESASHEMPVVPEDSERHQKILQWIMEGEKEIIRHKKSNHSSSSAKKQPPTELARPLSIERPGAVHPWVSAQLRNVVQPSHPFIQDPTMPPNPAPNPLTQLVSKPGARLEEEEKKAAKMPQKQRLKPQKKNVSAPSQPCDNIVVAYYFCGEPIPYRTMVKGRVVTLGQFKELLTKKGNYRYYFKKVSDEFDCGVVFEEVREDDMILPIYEEKIIGQVEKID
Regarding B1, the “GSK-3 beta-mediated tau phosphorylation (GSK-3 beta activity)” value is “no discernible effect”.
